Measured values: patent US20260266848A1, “COMPOSITIONS AND METHODS FOR DIAGNOSING AND TREATING DYSTONIA” (Duke University, priority 2023, published 2026)

B1: Adamts5 (protein, UniProt Q9R001 262-930, looked up)
A disintegrin and …: SISRARQVELLLVADSSMARMYGRGLQHYLLTLASIANRLYSHASIENHIRLAVVKVVVLTDKDTSLEVSKNAATTLKNFCKWQHQHNQLGDDHEEHYDAAILFTREDLCGHHSCDTLGMADVGTICSPERSCAVIEDDGLHAAFTVAHEIGHLLGLSHDDSKFCEENFGTTEDKRLMSSILTSIDASKPWSKCTSATITEFLDDGHGNCLLDLPRKQILGPEELPGQTYDATQQCNLTFGPEYSVCPGMDVCARLWCAVVRQGQMVCLTKKLPAVEGTPCGKGRVCLQGKCVDKTKKKYYSTSSHGNWGSWGPWGQCSRSCGGGVQFAYRHCNNPAPRNSGRYCTGKRAIYRSCSVTPCPPNGKSFRHEQCEAKNGYQSDAKGVKTFVEWVPKYAGVLPADVCKLTCRAKGTGYYVVFSPKVTDGTECRPYSNSVCVRGRCVRTGCDGIIGSKLQYDKCGVCGGDNSSCTKIIGTFNKKSKGYTDVVRIPEGATHIKVRQFKAKDQTRFTAYLALKKKTGEYLINGKYMISTSETIIDINGTVMNYSGWSHRDDFLHGMGYSATKEILIVQILATDPTKALDVRYSFFVPKKTTQKVNSVISHGSNKVGPHSTQLQWVTGPWLACSRTCDTGWHTRTVQCQDGNRKLAKGCLLSQRPSAFKQCLLKKC
B2: Dbi (protein, UniProt P31786 2-87, looked up)
Acyl-CoA-binding protein: SQAEFDKAAEEVKRLKTQPTDEEMLFIYSHFKQATVGDVNTDRPGLLDLKGKAKWDSWNKLKGTSKESAMKTYVEKVDELKKKYGI
B3: Alad (protein, UniProt P10518 1-330, looked up)
Delta-aminolevulinic acid …: MHHQSVLHSGYFHPLLRSWQTAASTVSASNLIYPIFVTDVPDDVQPIASLPGVARYGVNQLEEMLRPLVEAGLRCVLIFGVPSRVPKDEQGSAADSEDSPTIEAVRLLRKTFPSLLVACDVCLCPYTSHGHCGLLSENGAFLAEESRQRLAEVALAYAKAGCQVVAPSDMMDGRVEAIKAALLKHGLGNRVSVMSYSAKFASCFYGPFRDAAQSSPAFGDRRCYQLPPGARGLALRAVARDIQEGADMLMVKPGLPYLDMVREVKDKHPELPLAVYQVSGEFAMLWHGAQAGAFDLRTAVLETMTAFRRAGADIIITYFAPQLLKWLKEE
B4: Atg7 (protein, UniProt Q9D906 1-698, looked up)
Ubiquitin-like …: MGDPGLAKLQFAPFNSALDVGFWHELTQKKLNEYRLDEAPKDIKGYYYNGDSAGLPTRLTLEFSAFDMSASTPAHCCPAMGTLHNTNTLEAFKTADKKLLLEQSANEIWEAIKSGAALENPMLLNKFLLLTFADLKKYHFYYWFCCPALCLPESIPLIRGPVSLDQRLSPKQIQALEHAYDDLCRAEGVTALPYFLFKYDDDTVLVSLLKHYSDFFQGQRTKITVGVYDPCNLAQYPGWPLRNFLVLAAHRWSGSFQSVEVLCFRDRTMQGARDVTHSIIFEVKLPEMAFSPDCPKAVGWEKNQKGGMGPRMVNLSGCMDPKRLAESSVDLNLKLMCWRLVPTLDLDKVVSVKCLLLGAGTLGCNVARTLMGWGVRHVTFVDNAKISYSNPVRQPLYEFEDCLGGGKPKALAAAERLQKIFPGVNARGFNMSIPMPGHPVNFSDVTMEQARRDVEQLEQLIDNHDVIFLLMDTRESRWLPTVIAASKRKLVINAALGFDTFVVMRHGLKKPKQQGAGDLCPSHLVAPADLGSSLFANIPGYKLGCYFCNDVVAPGDSTRDRTLDQQCTVSRPGLAVIAGALAVELMVSVLQHPEGGYAIASSSDDRMNEPPTSLGLVPHQIRGFLSRFDNVLPVSLAFDKCTACSPKVLDQYEREGFTFLAKVFNSSHSFLEDLTGLTLLHQETQAAEIWDMSDEETV
B5: Fh (protein, UniProt P97807 42-507, looked up)
Fumarate hydratase, …: ASQNSFRVEFDTFGELKVPTDKYYGAQTVRSTMNFKIGGATERMPIPVIQAFGILKRAAAEVNQEYGLDPKIASAIMKAADEVAEGKLNDHFPLVVWQTGSGTQTNMNVNEVISNRAIEMLGGELGSKKPVHPNDHVNKSQSSNDTFPTAMHIAAAVEVHKVLLPGLQKLHDALSAKSKEFAQVIKIGRTHTQDAVPLTLGQEFSGYVQQVQYAMVRIKAAMPRIYELAAGGTAVGTGLNTRIGFAEKVAAKVAALTGLPFVTAPNKFEALAAHDALVELSGAMNTAACSLMKIANDIRFLGSGPRSGLGELILPENEPGSSIMPGKVNPTQCEAMTMVAAQVMGNHVAVTVGGSNGHFELNVFKPMMIKNVLHSARLLGDASVSFTDNCVVGIQANTERINKLMNESLMLVTALNPHIGYDKAAKIAKTAHKNGSTLKETAIELGYLTAEQFDEWVKPKDMLGPK
B6: Cyb5r3 (protein, UniProt Q9DCN2 2-301, looked up)
NADH-cytochrome b5 reductase 3: GAQLSTLSHVVLSPVWFIYSLFMKLFQRSTPAITLENPDIKYPLRLIDKEVISPDTRRFRFALPSPQHILGLPIGQHIYLSTRIDGNLVIRPYTPVSSDDDKGFVDLVVKVYFKDTHPKFPAGGKMSQYLENMKIGDTIEFRGPNGLLVYQGKGKFAIRADKKSNPVVRTVKSVGMIAGGTGITPMLQVIRAVLKDPNDHTVCYLLFANQSEKDILLRPELEELRNEHSARFKLWYTVDKAPDAWDYSQGFVNEEMIRDHLPTPGEEPLILMCGPPPMIQFACLPNLERVGHPKERCFTF
B7: Stxbp2 (protein, UniProt Q64324 1-593, looked up)
Syntaxin-binding protein 2: MAPLGLKAVVGEKILSGVIRSVKKDGEWKVLIMDHPSMRILSSCCKMSDILAEGITIVEDINKRREPIPSLEAIYLLSPTEKSVQALIADFQGTPTFTYKAAHIFFTDTCPEPLFSELGRSRLAKAVKTLKEIHLAFLPYEAQVFSLDAPHSTYNLYCPFRAGERGRQLDALAQQIATLCATLQEYPSIRYRKGPEDTAQLAHAVLAKLNAFKADTPSLGEGPEKTRSQLLIMDRAADPVSPLLHELTFQAMAYDLLDIEQDTYRYETTGLSESREKAVLLDEDDDLWVELRHMHIADVSKKVTELLKTFCESKRLTTDKANIKDLSHILKKMPQYQKELNKYSTHLHLADDCMKHFKGSVEKLCSVEQDLAMGSDAEGEKIKDAMKLIVPVLLDASVPPYDKIRVLLLYILLRNGVSEENLAKLIQHANVQSYSSLIRNLEQLGGTVTNSAGSGTSSRLERRERMEPTYQLSRWSPVIKDVMEDVVEDRLDRKLWPFVSDPAPVPSSQAAVSARFGHWHKNKAGVEARAGPRLIVYIVGGVAMSEMRAAYEVTRATEGKWEVLIGSSHILTPTRFLDDLKTLDQKLEGVALP
B8: Pdia3 (protein, UniProt P27773 25-505, looked up)
Protein disulfide-isomerase A3: SDVLELTDENFESRVSDTGSAGLMLVEFFAPWCGHCKRLAPEYEAAATRLKGIVPLAKVDCTANTNTCNKYGVSGYPTLKIFRDGEEAGAYDGPRTADGIVSHLKKQAGPASVPLRTEEEFKKFISDKDASVVGFFRDLFSDGHSEFLKAASNLRDNYRFAHTNIESLVKEYDDNGEGITIFRPLHLANKFEDKTVAYTEKKMTSGKIKKFIQDSIFGLCPHMTEDNKDLIQGKDLLTAYYDVDYEKNAKGSNYWRNRVMMVAKKFLDAGHKLNFAVASRKTFSHELSDFGLESTTGEVPVVAIRTAKGEKFVMQEEFSRDGKALEQFLQEYFDGNLKRYLKSEPIPESNEGPVKVVVAENFDDIVNEEDKDVLIEFYAPWCGHCKNLEPKYKELGEKLSKDPNIVIAKMDATANDVPSPYEVKGFPTIYFSPANKKLTPKKYEGGRELNDFISYLQREATNPPIIQEEKPKKKKKAQEDL
B9: Psmd4 (protein, UniProt O35226 1-376, looked up)
26S proteasome non-ATPase …: MVLESTMVCVDNSEYMRNGDFLPTRLQAQQDAVNIVCHSKTRSNPENNVGLITLANDCEVLTTLTPDTGRILSKLHTVQPKGKITFCTGIRVAHLALKHRQGKNHKMRIIAFVGSPVEDNEKDLVKLAKRLKKEKVNVDIINFGEEEVNTEKLTAFVNTLNGKDGTGSHLVTVPPGPSLADALISSPILAGEGGAMLGLGASDFEFGVDPSADPELALALRVSMEEQRQRQEEEARRAAAASAAEAGIATPGTEDSDDALLKMTINQQEFGRPGLPDLSSMTEEEQIAYAMQMSLQGTEFSQESADMDASSAMDTSDPVKEEDDYDVMQDPEFLQSVLENLPGVDPNNAAIRSVMGALASQATKDGKNDKKEEEKK

Legend:
DYT-TOR1A MEF EVs = assay: Quantitative LC-MS/MS proteomics of EVs from drug-treated DYT-TOR1A MEF cultures (ritonavir, salubrinal); format: cell-based, mouse; set-up: key to RTV Corrective Direction / RTV Corrective Direction, Grwd1 / RTV Corrective Direction, Srrm2 / RTV Corrective Direction, Rbm17 / RTV Corrective Direction, Dcaf8 / RTV Corrective Direction, Edil3 / RTV Corrective Direction, Timp3 / RTV Corrective Direction, Heatr3 / RTV Corrective Direction, Brd4 / RTV Corrective Direction, P3h4 / RTV Corrective Direction, Pacsin3 / RTV Corrective Direction, Naa50 / RTV Corrective Direction, Lpar6 / RTV Corrective Direction, Ndrg1 / RTV Corrective Direction, Kntc1 / RTV Corrective Direction, Cdk11b / RTV Corrective Direction, Sumo1 / RTV Corrective Direction, Lsm4 / RTV Corrective Direction, Hmga2 / RTV Corrective Direction, Cstf1 / RTV Corrective Direction, Tes / RTV Corrective Direction, Sbno1 / RTV Corrective Direction, Unc119b / RTV Corrective Direction, Cfdp1 / RTV Corrective Direction, Sec61b: YES = protein abundance effect opposite to DYT/WT; settings: EV protein abundance; for RTV Corrective Direction: DYT + RTV (ritonavir) vs DYT, direction compared with DYT/WT; for DYT + RTV/DYT Cohen's d: ritonavir (RTV)-treated DYT vs DYT
WT MEF EVs = assay: Quantitative LC-MS/MS proteomics of EVs from ISRIB-treated WT MEF cultures; format: cell-based, mouse; set-up: key to ISRIB and DYT Parallel Direction / ISRIB and DYT Parallel Direction, Ctdsp1 / ISRIB and DYT Parallel Direction, Pcdh19 / ISRIB and DYT Parallel Direction, Tspan7 / ISRIB and DYT Parallel Direction, Myo1e / ISRIB and DYT Parallel Direction, Plpp3 / ISRIB and DYT Parallel Direction, Sh3bp4 / ISRIB and DYT Parallel Direction, Dnajc7 / ISRIB and DYT Parallel Direction, Drg1 / ISRIB and DYT Parallel Direction, Maea: YES = protein abundance effect similar to DYT/WT; settings: EV protein abundance; for WT + ISRIB/WT Cohen's d: ISRIB-treated WT vs WT; for ISRIB and DYT Parallel Direction: WT + ISRIB vs WT, direction compared with DYT/WT

| Molecule | RTV Corrective Direction (DYT-TOR1A MEF EVs) | DYT + RTV/DYT Cohen's d (DYT-TOR1A MEF EVs) | WT + ISRIB/WT Cohen's d (WT MEF EVs) | ISRIB and DYT Parallel Direction (WT MEF EVs) |
| --- | --- | --- | --- | --- |
| B1 | YES | 0.76 | −2.06 | YES |
| B2 | YES | 0.91 | −2.44 | YES |
| B3 | YES | 1.57 | −1.50 | YES |
| B4 | YES | 0.61 | −2.35 | YES |
| B5 | YES | 2.12 | −0.28 | YES |
| B6 | YES | 0.64 | 0.64 | YES |
| B7 | YES | 1.82 | −0.96 | YES |
| B8 | YES | 0.37 | 0.39 | YES |
| B9 | YES | −0.60 | 0.71 | YES |
